According to patent US20230140797A1 (published 2023):

Key:
human IgA (hIgA) = human IgA (hIgA) (human); test: Biacore T200 SPR
[1] = molecular target: T1, human FcγRIIb extracellular domain with C-terminal His tag (human, UniProt P31994 43-217); test: Biacore SPR
T1 sequence (looked up): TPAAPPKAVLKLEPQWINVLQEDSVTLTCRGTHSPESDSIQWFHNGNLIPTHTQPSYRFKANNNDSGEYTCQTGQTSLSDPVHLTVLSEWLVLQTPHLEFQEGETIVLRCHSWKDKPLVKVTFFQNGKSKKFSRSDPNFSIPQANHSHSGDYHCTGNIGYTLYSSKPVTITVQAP

[2] = molecular target: T2, human FcγRIIa type R extracellular domain with C-terminal His tag (human, UniProt P12318 34-217); test: Biacore SPR
T2 sequence (looked up): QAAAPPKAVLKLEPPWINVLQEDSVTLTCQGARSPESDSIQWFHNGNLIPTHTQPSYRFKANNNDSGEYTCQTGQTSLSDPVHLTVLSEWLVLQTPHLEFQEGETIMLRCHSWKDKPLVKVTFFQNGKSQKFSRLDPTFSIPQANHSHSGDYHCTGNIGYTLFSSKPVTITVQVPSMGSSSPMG

[3] = molecular target: T3, human FcγRIIb extracellular domain with C-terminal His tag (human, UniProt P31994 43-217); test: SPR
T3 sequence (looked up): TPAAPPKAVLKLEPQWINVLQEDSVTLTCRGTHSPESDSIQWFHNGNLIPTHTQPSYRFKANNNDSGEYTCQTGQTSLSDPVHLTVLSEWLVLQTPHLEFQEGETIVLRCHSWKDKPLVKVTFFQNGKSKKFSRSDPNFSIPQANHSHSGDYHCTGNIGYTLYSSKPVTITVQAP

[4] = molecular target: T4, human FcγRIIa type R extracellular domain with C-terminal His tag (human, UniProt P12318 34-217); test: SPR
T4 sequence (looked up): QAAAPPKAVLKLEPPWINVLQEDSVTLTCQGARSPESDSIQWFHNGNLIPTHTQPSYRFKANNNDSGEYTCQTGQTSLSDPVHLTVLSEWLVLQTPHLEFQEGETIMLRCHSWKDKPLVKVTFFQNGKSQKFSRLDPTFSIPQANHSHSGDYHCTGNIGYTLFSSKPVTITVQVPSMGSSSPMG

[5] = molecular target: T3, human FcγRIIb extracellular domain with …; test: SPR; remark: listed apart in the source
[6] = molecular target: T5, human FcγRIIa type R extracellular domain with C-terminal His tag (human, UniProt P12318 34-217); test: SPR Biacore, amount bound per captured antibody
T5 sequence (looked up): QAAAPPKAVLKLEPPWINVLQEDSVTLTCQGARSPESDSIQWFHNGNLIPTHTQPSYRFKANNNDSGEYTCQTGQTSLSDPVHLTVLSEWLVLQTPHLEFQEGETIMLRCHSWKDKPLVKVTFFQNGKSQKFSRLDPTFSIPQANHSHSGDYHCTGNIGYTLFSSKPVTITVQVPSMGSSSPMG

[7] = molecular target: T6, human FcγRIIb extracellular domain with C-terminal His tag (human, UniProt P31994 43-217); test: SPR Biacore, amount bound per captured antibody
T6 sequence (looked up): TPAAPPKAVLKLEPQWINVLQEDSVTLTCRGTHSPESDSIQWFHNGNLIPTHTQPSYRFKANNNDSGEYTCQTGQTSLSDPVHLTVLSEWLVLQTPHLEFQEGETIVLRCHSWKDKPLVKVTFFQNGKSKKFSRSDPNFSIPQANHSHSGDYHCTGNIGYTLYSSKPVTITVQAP

[8] = molecular target: T7, human FcγRIIa type H extracellular domain with C-terminal His tag (human, UniProt P12318 34-217); test: SPR Biacore, amount bound per captured antibody
T7 sequence (looked up): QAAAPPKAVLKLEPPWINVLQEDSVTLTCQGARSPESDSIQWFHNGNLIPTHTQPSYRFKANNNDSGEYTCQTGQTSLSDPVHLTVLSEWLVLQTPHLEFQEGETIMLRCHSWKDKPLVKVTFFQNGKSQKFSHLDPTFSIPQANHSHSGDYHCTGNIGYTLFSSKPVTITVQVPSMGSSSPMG

[9] = molecular target: human FcγRIIIa type V extracellular domain with C-terminal His tag (human, UniProt P08637 17-208); test: SPR Biacore, amount bound per captured antibody
Chain of human FcγRIIIa type V extracellular domain with C-terminal His tag (P08637 17-208 F176V): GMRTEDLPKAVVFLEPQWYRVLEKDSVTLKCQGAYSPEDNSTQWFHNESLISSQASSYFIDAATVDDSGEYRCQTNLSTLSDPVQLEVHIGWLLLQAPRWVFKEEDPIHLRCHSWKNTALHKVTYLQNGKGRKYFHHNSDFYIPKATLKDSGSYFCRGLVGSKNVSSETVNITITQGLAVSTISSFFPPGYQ

[10] = molecular target: human FcγRIa extracellular domain with C-terminal His tag (human, UniProt P12314 16-292); test: SPR Biacore, amount bound per captured antibody
Chain of human FcγRIa extracellular domain with C-terminal His tag (P12314 16-292): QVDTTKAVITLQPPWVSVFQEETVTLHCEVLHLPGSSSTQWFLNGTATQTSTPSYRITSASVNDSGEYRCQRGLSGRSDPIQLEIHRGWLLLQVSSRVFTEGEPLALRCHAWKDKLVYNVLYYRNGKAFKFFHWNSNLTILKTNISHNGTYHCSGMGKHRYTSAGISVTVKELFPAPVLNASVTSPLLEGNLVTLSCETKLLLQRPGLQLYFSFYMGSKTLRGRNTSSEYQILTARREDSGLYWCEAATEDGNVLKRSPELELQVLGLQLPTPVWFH

[11] = molecular target: T8, biotinylated GPC3 peptide (human, biotin on the C-terminal Lys); test: Biacore T200 SPR, peptide on Sensor chip SA
T8 peptide: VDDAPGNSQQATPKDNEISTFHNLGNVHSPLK

B1: GA2-IgG1 (antibody, V domains shown)
VH: QVQLVQSGAEVKKPGSSVKVSCKASGGTFSSYAISWVRQAPGQGLEWMGGIIPIFGTANYAQKFQGRVTITADESTSTAYMELSSLRSEDTAVYYCARPRWETAISSDAFDIWGQGTMVTVSS
VL: DIQMTQSPSSLSASVGDRVTITCRASQSISDDLNWYQQKPGKAPKLLIYEASNLQSGVPSRFSGSGSGTDFTLTISSLQPEDFATYYCQQHSSSPLTFGQGTKVEIKR
Human IgA (hIgA)
  Ca-dependent hIgA-binding activity (fold): 100 times

B2: IL6R-BP478/IL6R-L (antibody)
heavy: QVQLQESGPGLVKPSETLSLTCAVSGHSISHDHAWSWVRQPPGEGLEWIGFISYSGITNYNPSLQGRVTISRDNSKNTLYLQMNSLRAEDTAVYYCARSLARTTAMDYWGEGTLVTVSSASTKGPSVFPLAPCSRSTSESTAALGCLVKDYFPEPVTVSWNSGALTSGVHTFPAVLQSSGLYSLSSVVTVPSSSLGTKTYTCNVDHKPSNTKVDKRVESKYGPPCPPCPAPDLLGDDSVFLFPPKPKDTLMISRTPEVTCVVVDVSDEDGEVKFNWYVDGVEVHNAKTKPREEQDNSTYRVVSVLTVLHQDWLNGKEYKCKVSNKALPRPIEKTISKAKGQPREPQVYTLPPSRDELTKNQVSLTCLVKGFYPSDIAVEWESNGQPENNYKTTPPVLDSDGSFFLYSKLTVDKSRWQQGNVFSCSVMHEALHNHYTQESLSLSP
light: not shown
[1]
  fold binding against IL6R-BP230/IL6R-L: 1.1 times
[2]
  fold binding against IL6R-BP230/IL6R-L: 0.9 times

B3: IL6R-BP559/IL6R-L (antibody, human IgG1, kappa)
heavy: QVQLQESGPGLVKPSETLSLTCAVSGHSISHDHAWSWVRQPPGEGLEWIGFISYSGITNYNPSLQGRVTISRDNSKNTLYLQMNSLRAEDTAVYYCARSLARTTAMDYWGEGTLVTVSSASTKGPSVFPLAPSSKSTSGGTAALGCLVKDYFPEPVTVSWNSGALTSGVHTFPAVLQSSGLYSLSSVVTVPSSSLGTQTYICNVNHKPSNTKVDKKVEPKSCDKTHTCPPCPAPELLGGDSVFLFPPKPKDTLMISRTPEVTCVVIDVAEEDGDVKFNWYVDGVEVHNAKTKPREEQDNSTYRVVSVLTVLHQDWLNGKEYKCKVSNKALPAPIEKTISKAKGQPREPQVYTLPPSRDELTKNQVSLTCLVKGFYPSDIAVEWESNGQPENNYKTTPPVLDSDGSFFLYSKLTVDKSRWQQGNVFSCSVMHEALHNHYTQESLSLSP
light: not shown
[3]
  KD (IIaH)/KD (IIb): 712
[4]
  Kd: 16 nM
[5]
  KD (IIaR)/KD (IIb): 58.4

B4: IL6R-BP199/IL6R-L (antibody, human IgG1, kappa)
heavy: QVQLQESGPGLVKPSETLSLTCAVSGHSISHDHAWSWVRQPPGEGLEWIGFISYSGITNYNPSLQGRVTISRDNSKNTLYLQMNSLRAEDTAVYYCARSLARTTAMDYWGEGTLVTVSSASTKGPSVFPLAPSSKSTSGGTAALGCLVKDYFPEPVTVSWNSGALTSGVHTFPAVLQSSGLYSLSSVVTVPSSSLGTQTYICNVNHKPSNTKVDKKVEPKSCDKTHTCPPCPAPDLLGGDSVFLFPPKPKDTLMISRTPEVTCVVVDVSHEDPEVKFNWYVDGVEVHNAKTKPREEQYNSTYRVVSVLTVLHQDWLNGKEYKCKVSNAALPRPIEKTISKAKGQPREPQVYTLPPSRDELTKNQVSLTCLVKGFYPSDIAVEWESNGQPENNYKTTPPVLDSDGSFFLYSKLTVDKSRWQQGNVFSCSVMHEALHNHYTQESLSLSP
light: not shown
[6]
  relative binding activity: 172 % of IL6R-BF648/IL6R-L
[7]
  relative binding activity: 144 % of IL6R-BF648/IL6R-L
[8]
  relative binding activity: 116 % of IL6R-BF648/IL6R-L
[9]
  relative binding activity: 103 % of IL6R-BF648/IL6R-L
[10]
  relative binding activity: 112 % of IL6R-BF648/IL6R-L

B5: human IgE (hIgE) (antibody)
heavy: QVQLVQSGAEVKKPGASVKVSCKASGYTFTDYEMHWVRQAPGQGLEWMGALDPKTGDTAYSQKFKGRVTLTADKSTSTAYMELSSLTSEDTAVYYCTRFYSYTYWGQGTLVTVSSASTQSPSVFPLTRCCKNIPSNATSVTLGCLATGYFPEPVMVTWDTGSLNGTTMTLPATTLTLSGHYATISLLTVSGAWAKQMFTCRVAHTPSSTDWVDNKTFSVCSRDFTPPTVKILQSSCDGGGHFPPTIQLLCLVSGYTPGTINITWLEDGQVMDVDLSTASTTQEGELASTQSELTLSQKHWLSDRTYTCQVTYQGHTFEDSTKKCADSNPRGVSAYLSRPSPFDLFIRKSPTITCLVVDLAPSKGTVNLTWSRASGKPVNHSTRKEEKQRNGTLTVTSTLPVGTRDWIEGETYQCRVTHPHLPRALMRSTTKTSGPRAAPEVYAFATPEWPGSRDKRTLACLIQNFMPEDISVQWLHNEVQLPDARHSTTQPRKTKGSGFFVFSRLEVTRAEWEQKDEFICRAVHEAASPSQTVQRAVSVNPGK
light: DVVMTQSPLSLPVTPGEPASISCRSSQSLVHSNRNTYLHWYLQKPGQSPQLLIYKVSNRFSGVPDRFSGSGSGTDFTLKISRVEAEDVGVYYCSQNTHVPPTFGQGTKLEIKRTVAAPSVFIFPPSDEQLKSGTASVVCLLNNFYPREAKVQWKVDNALQSGNSQESVTEQDSKDSTYSLSSTLTLSKADYEKHKVYACEVTHQGLSSPVTKSFNRGEC
[11]
  binding result: binds
